Ends that are not written are not given here.
Legend:
[1] = target: T1, Aβ42 (Homo sapiens, UniProt P05067); test: Spiking and recovery test of Aβ42; conditions: PBS, 100 μM peptide assay, triplicate
T1 construct: purchased Abcam ab120301
Experimental: PBS and human serum were used as solutions for the spiking test. Each of the Aβ42 and Aβ40 stock solutions was diluted using PBS, and the mixture was diluted using human serum. The diluted samples were added to antibody-coated plates and incubated for 2 h. The binding conditions used for the antibody coating and the peptide, streptavidin, and TMB treatment steps are described above. To calculate the recovery ratio, we divided the signals of the mixtures by the signals of Aβ42.

[2] = target: T1, Aβ42; test: Binding of synthetic biotinylated peptide to Aβ42 captured on antibody-coated plate (enzyme-linked peptide assay, OD450); conditions: biotin-conjugated peptide serially diluted, 1 h, PBST, Aβ42 captured by anti-Aβ42 antibody (protein G plate), streptavidin-HRP/TMB, Hill-slope fitting, triplicate, read-out: dissociation constant (KD)
Experimental: ABPP was conjugated with biotin as a signal reporter, with a purity greater than 95%, as assessed using high-performance liquid chromatography. The binding affinities of peptides were estimated for each Aβ42- and antibody-coated plate. The coating methods followed the protocol described above, except for the use of PBST instead of TBST. After coating the plate with Aβ42, serially diluted peptide was added to the plate for 1 h. After peptide incubation, all wells were washed four times with PBST. Next, the wells were incubated with 100 µL of streptavidin-HRP (1:4000 in PBST) for 1 h. After incubation, the solution in the wells was washed four times with PBST. TMB solution was added to each well for 15 min. Next, 100 µL of 1 M H2SO4 was added to the wells to stop the reaction, and the absorbance was measured at 450 nm (OD450) using a microplate reader. To determine the detection range, serially diluted Aβ42 was added to the antibody-coated plates. After washing, the plate was incubated for 1 h with 100 µL of 100 µM peptide. Streptavidin and TMB treatment steps were performed as described above. Based on the measurements, the limit of detection (LOD) for the diagnostic system was calculated according to the formula from the IUPAC: LOD = 3 × SD/slope. To verify the specificity of our diagnostic system, other amyloid proteins were added to the antibody-coated plates. […]

T1 sequence (P05067 672-713 limits assumed): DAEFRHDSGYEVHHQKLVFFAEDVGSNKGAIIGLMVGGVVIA

Substance | Average Recovery ([1]; Aβ40 + Aβ42 = 10 + 40 ng/mL, SD 12.46%, %RSD 12.84) [%] | Average Recovery ([1]; Aβ40 + Aβ42 = 20 + 40 ng/mL, SD 5.81%, %RSD 6.053) [%] | Average Recovery ([1]; Aβ40 + Aβ42 = 40 + 40 ng/mL, SD 10.51%, %RSD 10.15) [%] | Kd [2] [µM]
Aβ42: Aβ42 (ab120301) purchased from Abcam; analyte spiked in recovery test | 97.02 | 96.04 | 104.5 | 
SEPQNIWQYLRN [ABPP] |  |  |  | 17.5 ± 2.98
